In publication doi:10.1101/2021.03.24.436638 one finds amount coimmunoprecipitated with CNX, percent of wild-type GlyT2 data, which are given here for 2 molecules.

For this assay, the target named is calnexin (simian (endogenous in COS7)). As to the kind of experiment: co-IP.

B1: GlyT2 A277T mutant (rat numbering; rat version of human A275T) (natural protein)
chain: MDCSAPKEMNKPPTNILEATVPGHRDSPRAPRTSPEQDLPAAAPAAAVQPPRVPRSASTGAQTFQSADARACEAQRPGVGFCKLSSPQAQATSAALRDLSEGHSAQANPPSGAAGAGNALHCKIPALRGPEEDENVSVGKGTLEHNNTPAVGWVNMSQSTVVLGTDGIASVLPGSVATTTIPEDEQGDENKARGNWSSKLDFILSMVGYAVGLGNVWRFPYLAFQNGGGAFLIPYLMMLALAGLPIFFLEVSLGQFASQGPVSVWKAIPALQGCGITMLIISVLIAIYYNVIICYTLFYLFASFVSVLPWGSCNNPWNTPECKDKTKLLLDSCVIGDHPKIQIKNSTFCMTAYPNLTMVNFTSQANKTFVSGSEEYFKYFVLKISAGIEYPGEIRWPLAFCLFLAWVIVYASLAKGIKTSGKVVYFTATFPYVVLVILLIRGVTLPGAGAGIWYFITPKWEKLTDATVWKDAATQIFFSLSAAWGGLITLSSYNKFHNNCYRDTLIVTCTNSATSIFAGFVIFSVIGFMANERKVNIENVADQGPGIAFVVYPEALTRLPLSPFWAIIFFLMLLTLGLDTMFATIETIVTSISDEFPKYLRTHKPVFTLGCCICFFIMGFPMITQGGIYMFQLVDTYAASYALVIIAIFELVGISYVYGLQRFCEDIEMMIGFQPNIFWKVCWAFVTPTILTFILCFSFYQWEPMTYGSYRYPNWSMVLGWLMLACSVIWIPIMFVIKMYLAPGRFIERLKLVCSPQPDWGPFLAQHRGERYKNMIDPLGTSSLGLKLPVKDLELGTQC
As for B1, the amount coimmunoprecipitated with CNX, percent of wild-type GlyT2 was determined as 289%.

B2: GlyT2 Y707C mutant (rat numbering; rat version of human Y705C) (natural protein)
chain: MDCSAPKEMNKPPTNILEATVPGHRDSPRAPRTSPEQDLPAAAPAAAVQPPRVPRSASTGAQTFQSADARACEAQRPGVGFCKLSSPQAQATSAALRDLSEGHSAQANPPSGAAGAGNALHCKIPALRGPEEDENVSVGKGTLEHNNTPAVGWVNMSQSTVVLGTDGIASVLPGSVATTTIPEDEQGDENKARGNWSSKLDFILSMVGYAVGLGNVWRFPYLAFQNGGGAFLIPYLMMLALAGLPIFFLEVSLGQFASQGPVSVWKAIPALQGCGIAMLIISVLIAIYYNVIICYTLFYLFASFVSVLPWGSCNNPWNTPECKDKTKLLLDSCVIGDHPKIQIKNSTFCMTAYPNLTMVNFTSQANKTFVSGSEEYFKYFVLKISAGIEYPGEIRWPLAFCLFLAWVIVYASLAKGIKTSGKVVYFTATFPYVVLVILLIRGVTLPGAGAGIWYFITPKWEKLTDATVWKDAATQIFFSLSAAWGGLITLSSYNKFHNNCYRDTLIVTCTNSATSIFAGFVIFSVIGFMANERKVNIENVADQGPGIAFVVYPEALTRLPLSPFWAIIFFLMLLTLGLDTMFATIETIVTSISDEFPKYLRTHKPVFTLGCCICFFIMGFPMITQGGIYMFQLVDTYAASYALVIIAIFELVGISYVYGLQRFCEDIEMMIGFQPNIFWKVCWAFVTPTILTFILCFSFYQWEPMTCGSYRYPNWSMVLGWLMLACSVIWIPIMFVIKMYLAPGRFIERLKLVCSPQPDWGPFLAQHRGERYKNMIDPLGTSSLGLKLPVKDLELGTQC
B2 showed an amount coimmunoprecipitated with CNX, percent of wild-type GlyT2 of 188%.
